Tests used:
Test in all cases: EMSA
Details in all cases: 25 mM Hepes pH 8.0, 40 mM KCl, 5 mM MgCl2, 1 mM DTT, 1 mM EDTA, 8% glycerol; 50 ng protein, 20 fmol probe; 30 min at 28 C; native PAGE
[1] = target: 6xHis-WRKY18 (Arabidopsis thaliana (Col-0?)) (UniProt Q9C5T4)
[2] = target: T1, 6xHis-WRKY40 (Arabidopsis thaliana (Col-0?)) (UniProt Q9SAH7)
T1 sequence: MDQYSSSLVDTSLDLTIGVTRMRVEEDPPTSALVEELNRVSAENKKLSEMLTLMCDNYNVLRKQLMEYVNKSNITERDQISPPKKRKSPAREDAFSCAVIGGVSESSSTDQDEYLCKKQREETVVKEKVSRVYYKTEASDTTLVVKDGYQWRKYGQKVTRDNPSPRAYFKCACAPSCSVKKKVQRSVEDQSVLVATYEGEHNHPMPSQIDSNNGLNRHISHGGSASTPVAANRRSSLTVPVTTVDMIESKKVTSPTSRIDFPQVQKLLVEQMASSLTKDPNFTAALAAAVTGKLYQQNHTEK

[3] = target: 6xHis-WRKY60 (Arabidopsis thaliana (Col-0?)) (UniProt Q9SK33)
Sequence of 6xHis-WRKY60 (Arabidopsis thaliana (Col-0?)) (Q9SK33 whole entry): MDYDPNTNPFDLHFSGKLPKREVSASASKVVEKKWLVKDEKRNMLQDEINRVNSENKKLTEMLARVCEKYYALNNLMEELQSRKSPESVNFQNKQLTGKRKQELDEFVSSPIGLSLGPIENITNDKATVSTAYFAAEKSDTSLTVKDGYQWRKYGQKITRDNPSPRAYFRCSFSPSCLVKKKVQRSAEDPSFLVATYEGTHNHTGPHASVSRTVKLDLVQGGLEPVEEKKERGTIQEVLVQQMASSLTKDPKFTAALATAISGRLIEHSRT

Sequence of 6xHis-WRKY18 (Arabidopsis thaliana (Col-0?)) (Q9C5T4 whole entry): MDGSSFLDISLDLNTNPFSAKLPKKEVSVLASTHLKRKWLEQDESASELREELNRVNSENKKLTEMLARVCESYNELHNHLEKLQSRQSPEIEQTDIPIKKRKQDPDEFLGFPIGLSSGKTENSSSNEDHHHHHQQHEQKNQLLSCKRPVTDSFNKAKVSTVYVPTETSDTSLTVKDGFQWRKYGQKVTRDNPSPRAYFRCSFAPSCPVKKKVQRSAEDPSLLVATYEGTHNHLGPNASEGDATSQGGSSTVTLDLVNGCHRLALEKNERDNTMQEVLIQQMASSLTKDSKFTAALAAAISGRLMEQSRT

AGTTGTAAAGTTCAGAAGGAAAAGTACTAAAATATGAAGTCAACGACAATCTTTAGAGTCAACCTTCCACTAAGAGTGTTGATTGGTTTGATGAAGCAGTGAAGGCTAGAAACTGAAGCAACTAGGGTTTGGGAAGTTACTGTTTTAACTTGTAACTGTTCGTTTGTTACTTCTTTGGTAAGGAAGTAAAACGGTGTTGTCTTATTGACCCAAAGTCTCCGCGGCTTGCTGAATAATCACAAACCTATTAAATATCC (double strand) [ProCRK5-2]
binding [1]: binds
binding [2]: binds
binding [3]: no binding
